# According to patent publication US20030190641A1, “Live cell method for observing cellular processes” (CEDARS-SINAI MEDICAL CENTER, priority 2002, published 2003):
# Assays:
# [1] = tested on: H1299 cells; test: Single, live cell imaging: duration of mitosis phases of cells expressing PTTG-EGFP; format: cell-based, human; details: 18 hours after transfection
# Procedure: (§1) Human H1299 cells were grown in Dulbeccos's Modified Eagle Medium (DMEM) with 10% Fetal Bovine Serum (FBS) and transfected with Lipofectamine 2000 (obtained from Invitrogen Corporation; Carlsbad, Calif.; hereinafter “Invitrogen”). PTTG-EGFP and p55CDC-EGFP were constructed by cloning PTTG or p55CDC (obtained from Amgen, Inc.; Thousand Oaks, Calif.) into pEGFP-N3 (obtained from BD Biosciences Clontech; Palo Alto, Calif.; hereinafter “Clontech”). Non-degradable mutant PTTG-EGFP was obtained from Dr. Chris McCabe (University of Birmingham, England, UK). EGFP was at the C-terminus of PTTG or p55CDC. Cells were studied (microscopy or by Western blot) 18 to 24 hours after transfection.
# (§2) Observation of individual live cells over 48 hours or longer was performed by incubating cells in an FCS2 Closed Perfusion System (obtained from Bioptechs; Butler, Pa.). Cells were perfused with CO2-independent L15 medium (obtained from Invitrogen) supplemented with 10% FBS and penicillin/streptomycin and saturated with ambient air. Perfusion chamber temperature was set to 37° C., and cells were grown in the perfusion system for up to a week until confluency.
# (§3) The perfusion chamber was placed on an inverted fluorescence microscope (obtained from Nikon Corporation; Melville, N.Y.) and observed with a 40× extra-long working distance objective lens. Cells were observed from every few seconds to every several hours depending on the speed of cell changes. Durations of mitosis phases were determined by counting the minutes between two sequential mitotic milestones. Phase-contrast and EGFP fluorescent images were taken simultaneously at frequencies ranging from every minute (e.g., during metaphase to anaphase transition) to every few hours (e.g., after telophase), with a CCD digital camera.
# (§4) Relative fluorescence intensity was objectively determined with the application of two neutral density filters (NDFs). Each NDF reduces incident light by 50%. High fluorescence was defined when a cell was clearly visualized after application of two NDFs. Medium fluorescence was defined as a cell clearly visualized after application of one but not two NDFs. Low fluorescence was defined as a cell only visualized when neither NDF was applied.
# As depicted in Table 1, prophase (Pro), metaphase (Meta), anaphase (Ana), and telophase (Telo) durations were recorded (in minutes) in untransfected control cells (Control), cells expressing EGFP only (EGFP), and in cells expressing PTTG-EGFP (PTTG-EGFP) 18 hours after transfection. […] For some cells expressing PTTG-EGFP, no distinct anaphase or telophase was seen because of abnormal chromosome segregation and cytokinesis.
# [2] = tested on: H1299 cells; test: Single, live cell imaging: destiny of mitosis (PTTG degradation, chromosome segregation, cytokinesis, aneuploidy); format: cell-based, human
# Procedure: as §1, §2, §3, §4
# As failure of PTTG degradation is associated with chromosome non-segregation, an EGFP-tagged non-degradable mutant PTTG (DM-PTTG-EGFP) was expressed in H1299 cells and chromosome segregation and cytokinesis of individual live cells observed (FIG. 6; FIG. 5A). Similar to the wild-type PTTG, DM-PTTG localizes to mitotic spindles (FIGS. 5B-5G) and chromosomes (data not shown). […] Most (51/55) cells underwent asymmetrical cytokinesis, while some cells decondensed chromosomes; macronuclei ensued in both cases. During asymmetrical cytokinesis, chromosomes and mitotic spindles were closely attached and moved to one cell pole (FIGS. 5B-5G). The cytokinesis furrow occurred roughly at the position of the distal centrosome (FIGS. 5C and 5D). Both centrosomes were retained in the daughter cell containing chromosomes (FIGS. 5E and 5F).
# [3] = High expression level (fluorescence)
# [4] = Low expression level (fluorescence)
# [5] = Medium expression level (fluorescence)
molecule,measurement,setting,value
"PTTG-EGFP: EGFP-tagged PTTG (pituitary tumor transforming gene product), EGFP at the C-terminus, expressed in H1299 cells by transfection (protein, UniProt O95997 2-202, looked up, C-terminal EGFP tag, EGFP-tagged PTTG (pituitary tumor transforming gene product), EGFP at the C-terminus, expressed in H1299 cells by transfection) Securin: ATLIYVDKENGEPGTRVVAKDGLKLGSGPSIKALDGRSQVSTPRFGKTFDAPPALPKATRKALGTVNRATEKSVKTKGPLKQKQPSFSAKKMTEKTVKAKSSVPASDDAYPEIEKFFPFNPLDFESFDLPEEHQIAHLPLSGVPLMILDEERELEKLFQLGPPSPVKMPSPPWESNLLQSPSSILSTLDVELPPVCCDIDI",Duration of metaphase (Meta),[1]; [3],112 ± 31 min
same,Duration of prophase (Pro),[1]; [3],59 ± 7 min
same,Duration of anaphase (Ana),[1]; [4],4 ± 0 min
same,Duration of metaphase (Meta),[1]; [4],26 ± 4 min
same,Duration of prophase (Pro),[1]; [4],25 ± 3 min
same,Duration of telophase (Telo),[1]; [4],5 ± 0 min
same,Duration of anaphase (Ana),[1]; [5],4 ± 0 min
same,Duration of metaphase (Meta),[1]; [5],49 ± 16 min
same,Duration of prophase (Pro),[1]; [5],35 ± 12 min
same,Duration of telophase (Telo),[1]; [5],5 ± 0 min
same,Cells with anaphase bridge,[2]; 65 cells expressing PTTG-EGFP observed,2/65
same,Time of degradation prior to the onset of anaphase,[2]; cells that underwent apparently normal mitosis,about 1 minute
same,Aneuploidy of daughter cells,[2]; parent cells expressing high levels,All daughter cells
same,Aneuploidy rate of daughter cells,[2]; parent cells expressing low levels,18%
same,Aneuploidy rate of daughter cells,[2]; parent cells expressing medium levels,63%
